Assay results from publication doi:10.1101/2020.03.02.972562.

Target: RSC complex (budding yeast (S. cerevisiae) (endogenous in BJ3505)) (UniProt P32597)
Assay: BLI

Sequence of UniProt P32597 (P32597 whole entry, looked up, one chain of several): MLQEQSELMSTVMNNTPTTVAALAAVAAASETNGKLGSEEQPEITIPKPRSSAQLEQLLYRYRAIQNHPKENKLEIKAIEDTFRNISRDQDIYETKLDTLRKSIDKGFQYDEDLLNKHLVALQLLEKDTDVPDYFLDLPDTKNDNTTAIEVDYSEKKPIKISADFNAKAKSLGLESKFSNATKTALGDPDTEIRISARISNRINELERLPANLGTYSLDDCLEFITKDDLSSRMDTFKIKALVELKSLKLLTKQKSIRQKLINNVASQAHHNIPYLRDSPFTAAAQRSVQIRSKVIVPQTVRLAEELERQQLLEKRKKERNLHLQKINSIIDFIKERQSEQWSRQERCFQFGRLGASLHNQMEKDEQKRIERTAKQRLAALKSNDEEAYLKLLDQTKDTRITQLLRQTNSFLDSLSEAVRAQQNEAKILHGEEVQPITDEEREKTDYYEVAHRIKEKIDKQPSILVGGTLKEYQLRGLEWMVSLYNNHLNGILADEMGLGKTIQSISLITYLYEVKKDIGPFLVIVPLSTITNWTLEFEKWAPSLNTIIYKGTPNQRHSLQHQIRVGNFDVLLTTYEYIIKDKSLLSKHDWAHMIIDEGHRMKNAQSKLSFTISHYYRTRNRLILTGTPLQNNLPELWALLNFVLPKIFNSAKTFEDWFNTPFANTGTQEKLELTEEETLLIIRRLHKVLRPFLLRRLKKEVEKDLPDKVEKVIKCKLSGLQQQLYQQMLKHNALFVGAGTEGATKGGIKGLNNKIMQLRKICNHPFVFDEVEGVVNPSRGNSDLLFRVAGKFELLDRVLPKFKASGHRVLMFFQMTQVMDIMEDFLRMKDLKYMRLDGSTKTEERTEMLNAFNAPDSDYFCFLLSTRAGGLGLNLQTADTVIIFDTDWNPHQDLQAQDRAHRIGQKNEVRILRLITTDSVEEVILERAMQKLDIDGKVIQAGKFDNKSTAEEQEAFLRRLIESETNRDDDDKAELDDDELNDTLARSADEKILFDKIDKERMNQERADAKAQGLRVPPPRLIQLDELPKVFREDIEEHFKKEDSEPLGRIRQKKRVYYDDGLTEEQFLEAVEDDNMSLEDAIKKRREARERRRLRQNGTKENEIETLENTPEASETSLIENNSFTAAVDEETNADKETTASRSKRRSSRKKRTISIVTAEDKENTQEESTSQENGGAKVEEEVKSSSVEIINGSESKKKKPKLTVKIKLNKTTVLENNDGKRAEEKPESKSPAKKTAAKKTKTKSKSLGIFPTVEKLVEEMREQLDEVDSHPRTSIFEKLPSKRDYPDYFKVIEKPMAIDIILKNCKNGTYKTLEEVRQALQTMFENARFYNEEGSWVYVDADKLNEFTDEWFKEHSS

Question: Which fold affinity against unmodified NCPs does the source give for “SUMOylated nucleosome core particles (from UniProt P68431 1-136; P62805 1-103; P04908 1-130; P02281 6-126) (complex)” here?
Answer: The fold affinity against unmodified NCPs was 2 fold.
